Where “and” joins values, the source holds several entries; their conditions need not be identical. Equal entries are not always repeated.

Assay [1] has as its target A4V mutant copper-zinc superoxide dismutase (A4VSOD1) (human) (UniProt P00441). Briefly: atomic force microscopy.
Assay [2] shares this target. The experiment in a line: AUC.

The substance “A4V mutant copper-zinc superoxide dismutase (A4VSOD1) (from UniProt P00441 6-154) (enzyme)” gave a stoichiometry N in assay [1] of 4. Moreover, in assay [2], the percent of total protein as dimer was found to be 31.7%; the percent of total protein as tetramer was 37.6%; the stoichiometry N was 2 and 4.

The term stoichiometry N denotes a count of units in the complex or per binding partner.

Values taken from paper PMC3384721.
